# Results: US8044021B2, “Sustained release of apo A-I mimetic peptides and methods of treatment” (Abbott Cardiovascular Systems Inc., priority 2007, dated 2011)
# Ends that are not written are not given here.
# Key:
# [1] = system: reverse cholesterol transport; details: cited from earlier work
# [2] = CD spectra after heating then cooling; type: physicochemical; details: 25° C., heated to 70° C., cooled back to 25° C.; 0.0625-0.5 mg/mL
# Experimental: As shown in each chart (vii) through (x), a CD spectrum of the mimetic peptide was obtained at t1=25° C., then heated to t2=70° C., then cooled back to t3=25° C. for varying concentrations, e.g., 0.5 mg/mL mimetic peptide, 0.25 mg/mL mimetic peptide, 0.125 mg/mL mimetic peptide, and 0.0625 mg/mL mimetic peptide. The spectrums at t and t3 show a substantially identical spectrum for each of t1 and t3 at the various concentrations, thus indicating the mimetic peptide's secondary structure change is reversible when subjected to heat.
# [3] = turbidity change of DMPC multilamellar vesicles (MLV) after mixing with peptide; type: physicochemical
# Experimental: A mimetic peptide, SEQ ID NO: 4, was mixed with multilamellar vesicles comprised of DMPC. A DMPC chloroform solution was gently dried by nitrogen stream in the fume hood or by rotor evaporator. Resultant lipid film was further dried in vacuum desiccators and subjected to vacuum for at least 3 hours to remove residual chloroform. Phosphate buffered saline (PBS) was added to the lipid film and mixed using a vortex mixer to prepare an MLV suspension (2.5 mg/mL). The peptide was dissolved in PBS (1 mg/mL) then mixed with the same volume of MLV suspension at room temperature. […] At 0.5 mg/mL mimetic peptide in solution, the absorbance at 400 nm is zero. At 1.25 mg/mL DMPC in solution, the absorbance at 400 nm is 0.1. When the two solutions are combined and after approximately 5 minutes of mixing, the absorbance begins to approach zero. After approximately 15 minutes of mixing, the solution becomes completely clear, i.e., the absorbance is zero, thus evidencing mimetic peptide/phospholipid complexing.
# [4] = circular dichroism (CD) spectra, calculated percent secondary structure; type: physicochemical
molecule,measurement,setting,value
"DWFKAFYDKVAEKFKEAF (not fully specified) [D-4F, 18-mer apo A-I mimetic peptide 4F, D enantiomer]",reverse cholesterol transport in vitro,[1]; when a phospholipid complex is presented,function more effectively
same,reverse cholesterol transport,[1]; without a lipid complex,effective
"Ac-DWFKAFYDKVAEKFKEAF-NH2 [SEQ ID NO: 4, 18-mer peptide, 4F, N-acetyl, C-amide]",secondary structure change when subjected to heat,[2],reversible
same,absorbance at 400 nm,[3]; 0.5 mg/mL mimetic peptide in solution (PBS),zero
same,alpha helicity,[4]; 0.125 mg/mL mimetic peptide,10.5%
same,alpha helicity,[4]; 0.25 mg/mL mimetic peptide,16%
same,alpha helicity,[4]; 0.5 mg/mL mimetic peptide,19.5%
PALEDLRQGLLPVLESFKVFLSALEEYTKKLNTQ [33-mer peptide mimetic],need of phospholipid complex for effective reverse cholesterol transport,[1],requires phospholipid complex formation
"CCCCCCCCCCCCCC(=O)OC[C@H](COP(=O)([O-])OCC[N+](C)(C)C)OC(=O)CCCCCCCCCCCCC [DMPC, dimyristoylphosphatidylcholine, reference compound]",absorbance at 400 nm,[3]; 1.25 mg/mL DMPC in solution (MLV in PBS),0.1
